Source: patent publication US20050004353A1 (Amgen, published 2005)
Changes are numbered by the printed parent chain. Values joined by “and” are separate entries in the source; they are usually repeats but may differ in a detail not shown here. Equal entries are not always repeated.

Assays:
[1] = target: T1, human interferon-gamma (IFN-γ) (human, UniProt P01579 24-161); assay: cell-based or functional assay
T1 sequence (looked up): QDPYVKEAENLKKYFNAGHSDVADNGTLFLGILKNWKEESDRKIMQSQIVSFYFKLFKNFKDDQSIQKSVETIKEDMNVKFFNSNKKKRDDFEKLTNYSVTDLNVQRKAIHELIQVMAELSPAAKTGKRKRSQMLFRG

[2] = target: T1, human interferon-gamma (IFN-γ); assay: ELISA on plates coated with recombinant IFN-γ, antibody purified from hybridoma supernatant
[3] = target: T1, human interferon-gamma (IFN-γ); assay: equilibrium-binding assay in solution, free antibody captured on IFN-γ coupled beads, KinExA
Protocol: Binding kinetics for several of the antibodies to IFN-γ were measured by BIAcore analysis. […] Accordingly, an equilibrium-binding assay was developed and used. A fixed amount of antibody was incubated with various concentrations of IFN-γ for greater than 5 hours in order to reach equilibrium and then contacted with IFN-γ coupled beads for a very brief time, and the amount of free antibody that bound to the beads was measured in a KINEXA™ machine (Sapidyne Instruments Inc., Boise, Id.), a fluorescence based immunoassay instrument. The lowest equilibrium dissociation constant obtained, ˜24 pM, was with the 1119 antibody.

huIFN-γV110 = target: T2, huIFN-γV110 (human, UniProt P01579 24-161); assay: cell-based or functional assay
T2 sequence (looked up): T1 sequence (looked up) with I110V

cynomolgus monkey IFN-γ = target: T3, cynomolgus monkey IFN-γ (cynomolgus monkey, UniProt P63309 24-165); assay: cell-based or functional assay
T3 sequence (looked up): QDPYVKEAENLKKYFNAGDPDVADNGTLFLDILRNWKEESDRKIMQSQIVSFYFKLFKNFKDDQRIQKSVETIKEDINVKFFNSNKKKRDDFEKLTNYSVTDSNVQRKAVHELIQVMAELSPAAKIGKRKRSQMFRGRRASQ

huIFN-γP20 = target: T4, huIFN-γP20 (human, UniProt P01579 24-161); assay: cell-based or functional assay
T4 sequence (looked up): T1 sequence (looked up) with S20P

huIFN-γD19 = target: T5, huIFN-γD19 (human, UniProt P01579 24-161); assay: cell-based or functional assay
T5 sequence (looked up): T1 sequence (looked up) with H19D

huIFN-γS103 = target: T6, huIFN-γS103 (human, UniProt P01579 24-161); assay: cell-based or functional assay
T6 sequence (looked up): T1 sequence (looked up) with L103S

huIFN-γR34 = target: T7, huIFN-γR34 (human, UniProt P01579 24-161); assay: cell-based or functional assay
T7 sequence (looked up): T1 sequence (looked up) with K34R

huIFN-γD31 = target: T8, huIFN-γD31 (human, UniProt P01579 24-161); assay: cell-based or functional assay
T8 sequence (looked up): T1 sequence (looked up) with G31D

huIFN-γI77 = target: T9, huIFN-γI77 (human, UniProt P01579 24-161); assay: cell-based or functional assay
T9 sequence (looked up): T1 sequence (looked up) with M77I

huIFN-γR65 = target: T10, huIFN-γR65 (human, UniProt P01579 24-161); assay: cell-based or functional assay
T10 sequence (looked up): T1 sequence (looked up) with S65R

huIFN-γI126 = target: T11, huIFN-γI126 (human, UniProt P01579 24-161); assay: cell-based or functional assay
T11 sequence (looked up): T1 sequence (looked up) with T126I

B1: 1121 anti-IFN-γ antibody (antibody, V domains shown)
VH: EVQLVQSGAEVKKPGESLKISCKGSGYNFTSYWIGWVRQMPGKGLEWMGIIYPGDSDTRYSPSFQGQVTISADKSISTAYLQWSSLKASDTAMYYCGSGSYWYFDLWGRGTLVTVSS
VL: EIVLTQSPGTLSLSPGERATLSCRASQSVSSSYLAWYQQKPGQAPRLLIYGASSRATGIPDRFSGSGSGTDFTLTISRLEPEDFAVYYCQRSGGSSFTFGPGTKVDIKR
- IC50, A549 bioassay (inhibition of the anti-proliferative effect of IFN-γ, 30 pM IFN-γ) [1]: 46 pM
- IC50, THP-1/HLA DR bioassay (21 pM IFN-γ) [1]: 60 pM

B2: 1121* anti-IFN-γ antibody (antibody, human IgG1, kappa, V domains shown)
VH: B1 VH
VL: EIVLTQSPGTLSLSPGERATLSCRASQSIISSYLAWYQQKPGQTPRLLIYGVSSRATGIPDRFSGSGSGTDFTLTITRLEPEDFAVYYCQQYGNSFMYTFGQGTKLEIKR
notes: the ELISA used antibody purified from hybridoma supernatant
- binding result [2]: binds

B3: 1119 anti-IFN-γ antibody (antibody, human IgG1, kappa, V domains shown)
VH: B1 VH with W47L, W102F
VL: B1 VL
notes: also called 1119 antibody; 1119 mAb
- Kd [3]: ~0.024 nM
- IC50, A549 bioassay (inhibition of the anti-proliferative effect of IFN-γ, 30 pM IFN-γ) [1]: 14 pM
- IC50, THP-1/HLA DR bioassay (21 pM IFN-γ) [1]: 14 pM
- IC50, human whole blood bioassay (IFN-γ-induced IP-10 production), one of two donors [1]: 0.017 nM and 0.014 nM
- % Neutralization by 1119 (A549 bioassay) (huIFN-γV110): 103%
- % Neutralization by 1119 (A549 bioassay) (cynomolgus monkey IFN-γ): 0%
- % Neutralization by 1119 (A549 bioassay) (huIFN-γP20): 0%
- % Neutralization by 1119 (A549 bioassay) (huIFN-γD19): 0%
- % Neutralization by 1119 (A549 bioassay) (huIFN-γS103): 102%
- % Neutralization by 1119 (A549 bioassay) (huIFN-γR34): 109%
- % Neutralization by 1119 (A549 bioassay) (huIFN-γD31): 103%
- % Neutralization by 1119 (A549 bioassay) (huIFN-γI77): 108%
- % Neutralization by 1119 (A549 bioassay) (huIFN-γR65): 109%
- % Neutralization by 1119 (A549 bioassay) (huIFN-γI126): 109%

B4: 1118 anti-IFN-γ antibody (antibody, V domains shown)
VH: B1 VH with N28S
VL: B1 VL with Y33S
- IC50, A549 bioassay (inhibition of the anti-proliferative effect of IFN-γ, 30 pM IFN-γ) [1]: 97 pM
- IC50, THP-1/HLA DR bioassay (21 pM IFN-γ) [1]: 86 pM
